Read-outs that look alike come from different tables or passages of the source.
What was measured:
RIG-I [1] = target: T1, RIG-I (human, UniProt O95786 1-925); experiment: EMSA
T1 sequence: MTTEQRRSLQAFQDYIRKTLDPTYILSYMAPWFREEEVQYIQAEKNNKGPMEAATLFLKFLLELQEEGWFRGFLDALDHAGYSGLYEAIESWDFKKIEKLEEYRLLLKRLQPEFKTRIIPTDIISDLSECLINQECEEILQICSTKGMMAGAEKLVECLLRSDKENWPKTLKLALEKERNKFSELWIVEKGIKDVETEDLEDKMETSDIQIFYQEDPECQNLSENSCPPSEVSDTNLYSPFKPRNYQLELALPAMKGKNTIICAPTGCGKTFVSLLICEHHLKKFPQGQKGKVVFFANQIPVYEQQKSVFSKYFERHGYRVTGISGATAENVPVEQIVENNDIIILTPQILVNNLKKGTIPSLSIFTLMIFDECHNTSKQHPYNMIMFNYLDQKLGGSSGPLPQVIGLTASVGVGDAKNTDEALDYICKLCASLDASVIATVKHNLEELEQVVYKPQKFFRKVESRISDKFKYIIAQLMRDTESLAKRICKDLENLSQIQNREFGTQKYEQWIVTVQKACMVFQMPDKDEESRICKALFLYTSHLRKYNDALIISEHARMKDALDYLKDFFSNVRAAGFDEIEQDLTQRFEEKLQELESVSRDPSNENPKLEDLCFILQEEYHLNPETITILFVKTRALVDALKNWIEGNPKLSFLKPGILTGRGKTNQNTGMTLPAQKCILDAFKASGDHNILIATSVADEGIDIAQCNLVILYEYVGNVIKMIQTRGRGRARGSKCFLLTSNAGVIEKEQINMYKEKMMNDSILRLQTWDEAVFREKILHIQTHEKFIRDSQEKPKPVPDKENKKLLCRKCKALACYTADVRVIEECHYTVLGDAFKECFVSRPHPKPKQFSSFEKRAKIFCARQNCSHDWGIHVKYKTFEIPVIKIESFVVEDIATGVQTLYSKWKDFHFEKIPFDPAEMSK

RIG-I [2] = target: T1, RIG-I; experiment: EMSA; remark: listed apart in the source

| Binder | binding result (RIG-I [1]) | binding result (RIG-I [2]) |
| --- | --- | --- |
| 47R/25RI (dsRNA, 5'-OH) RNA 1: GGAAAAUGUAAAUGACAUAGGCGCGCUGAAAGGGAGAAGUGAAAGUG RNA 2: CGCGCCUAUGUCAUUUACAUUUUCC | binds | – |
| 3P-47R/25RI (dsRNA, 5'-triphosphate (on 47R, implied by name)) RNA 1: GGAAAAUGUAAAUGACAUAGGCGCGCUGAAAGGGAGAAGUGAAAGUG RNA 2: CGCGCCUAUGUCAUUUACAUUUUCC | – | binds |
| 3P-47R/25DI (DNA:RNA, 5'-triphosphate (on 47R, implied by name)) RNA: GGAAAAUGUAAAUGACAUAGGCGCGCUGAAAGGGAGAAGUGAAAGUG DNA: CACTTTCACTTCTCCCTTTCAGCGC | – | binds |

Source: article PMC5002451
